Measurements published in patent publication US20150368338A1 (Janssen / Centocor, published 2015).

Assays:
Experiment in all cases: ProteOn, one antigen concentration
[1] = molecular target: T1, human IFN-ω (human, UniProt P05000 24-195)
T1 construct: also called interferon omega
Excerpt: (§1) To increase the assay throughput, only one concentration of the individual antigen was used.

[2] = molecular target: T2, IFN-αC (human, UniProt P01566 24-189)
T2 construct: also called IFN-α10; alpha C
Excerpt: as §1

[3] = molecular target: T3, IFN-αF (human, UniProt P01568 24-189)
T3 construct: also called IFN-α21; alpha F
T3 chain: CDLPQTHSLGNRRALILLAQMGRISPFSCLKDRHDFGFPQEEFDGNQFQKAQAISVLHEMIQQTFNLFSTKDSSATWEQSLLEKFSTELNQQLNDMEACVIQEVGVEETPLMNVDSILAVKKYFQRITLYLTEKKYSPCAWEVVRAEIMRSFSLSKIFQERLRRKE
Excerpt: as §1

[4] = molecular target: T4, IFN-αJ1 (human, UniProt P01567 24-189)
T4 construct: also called IFN-α7; alpha J1
Excerpt: as §1

[5] = molecular target: T5, IFN-α4a (human, UniProt P05014 24-189)
T5 construct: also called IFN-αM1
Excerpt: as §1

[6] = molecular target: T6, IFN-αG (human, UniProt P01569 24-189)
T6 construct: also called IFN-α5; alpha G
Excerpt: as §1

[7] = molecular target: T7, IFN-αWA (human, UniProt P05015 24-189)
T7 construct: also called IFN-α16; alpha WA
Excerpt: as §1

Binder	Kd [1] [nM]	Kd [2] [nM]	Kd [3] [nM]	Kd [4] [nM]	Kd [5] [nM]	Kd [6] [nM]	Kd [7] [nM]
IFWM3352 (antibody, V domains shown, VH IFWH624, VL IFWL1013; converted mAb; also called IFWB3087) VH: EVQLVQSGAEVKKPGESLKISCKGSGYSFTSYWIGWVRQMPGKGLEWMGIIDPSDSDTAYSPSFQGQVTISADKSISTAYLQWSSLKASDTAMYYCARHPGLNWAPDFDYWGQGTLVTVSS VL: DIQMTQSPSSLSASVGDRVTITCRASQSINNFLNWYQQKPGKAPKLLIYFASSLQSGVPSRFSGSGSGTDFTLTISSLQPEDFATYYCQQSFNLPITFGQGTKVEIK	0.06	0.121	0.152	0.287	0.267	0.09	0.087
IFWM3353 (antibody, V domains shown, VH IFWH624, VL IFWL1014; converted mAb; also called IFWB3088) VH: EVQLVQSGAEVKKPGESLKISCKGSGYSFTSYWIGWVRQMPGKGLEWMGIIDPSDSDTAYSPSFQGQVTISADKSISTAYLQWSSLKASDTAMYYCARHPGLNWAPDFDYWGQGTLVTVSS VL: DIQMTQSPSSLSASVGDRVTITCRASQSIDRALNWYQQKPGKAPKLLIYFASSLQSGVPSRFSGSGSGTDFTLTISSLQPEDFATYYCQQSFDFPLTFGQGTKVEIK	0.006	0.054	0.055	0.095	0.11	0.016	0.031
IFWM3354 (antibody, V domains shown, VH IFWH624, VL IFWL1017; converted mAb; also called IFWB3089) VH: EVQLVQSGAEVKKPGESLKISCKGSGYSFTSYWIGWVRQMPGKGLEWMGIIDPSDSDTAYSPSFQGQVTISADKSISTAYLQWSSLKASDTAMYYCARHPGLNWAPDFDYWGQGTLVTVSS VL: DIQMTQSPSSLSASVGDRVTITCRASQSITSSLNWYQQKPGKAPKLLIYFASSLQSGVPSRFSGSGSGTDFTLTISSLQPEDFATYYCQQSFDLPLTFGQGTKVEIK	0.017	0.043	0.032	0.098	0.123	0.043	0.052
IFWM3355 (antibody, V domains shown, VH IFWH624, VL IFWL1022; converted mAb; also called IFWB3090) VH: EVQLVQSGAEVKKPGESLKISCKGSGYSFTSYWIGWVRQMPGKGLEWMGIIDPSDSDTAYSPSFQGQVTISADKSISTAYLQWSSLKASDTAMYYCARHPGLNWAPDFDYWGQGTLVTVSS VL: DIQMTQSPSSLSASVGDRVTITCRASQSINEFLNWYQQKPGKAPKLLIYFASSLQSGVPSRFSGSGSGTDFTLTISSLQPEDFATYYCQQSYSTPLTFGQGTKVEIK	0.026	0.055	0.052	0.079	0.122	0.06	0.041
IFWM3357 (antibody, V domains shown, VH IFWH624, VL IFWL1038; converted mAb; also called IFWB3092) VH: EVQLVQSGAEVKKPGESLKISCKGSGYSFTSYWIGWVRQMPGKGLEWMGIIDPSDSDTAYSPSFQGQVTISADKSISTAYLQWSSLKASDTAMYYCARHPGLNWAPDFDYWGQGTLVTVSS VL: DIQMTQSPSSLSASVGDRVTITCRASQSISEYLNWYQQKPGKAPKLLIYFASSLQSGVPSRFSGSGSGTDFTLTISSLQPEDFATYYCQQSHSLPITFGQGTKVEIK	0.004	0.023	0.039	0.13	0.17	0.014	0.037
IFWM3358 (antibody, V domains shown, VH IFWH624, VL IFWL1041; converted mAb; also called IFWB3093) VH: EVQLVQSGAEVKKPGESLKISCKGSGYSFTSYWIGWVRQMPGKGLEWMGIIDPSDSDTAYSPSFQGQVTISADKSISTAYLQWSSLKASDTAMYYCARHPGLNWAPDFDYWGQGTLVTVSS VL: DIQMTQSPSSLSASVGDRVTITCRASQSITGFLNWYQQKPGKAPKLLIYAASSLQSGVPSRFSGSGSGTDFTLTISSLQPEDFATYYCQQSHDFPLTFGQGTKVEIK	0.018	0.054	0.047	0.223	0.319	0.048	0.123
IFWM3359 (antibody, V domains shown, VH IFWH624, VL IFWL1047; converted mAb; also called IFWB3094) VH: EVQLVQSGAEVKKPGESLKISCKGSGYSFTSYWIGWVRQMPGKGLEWMGIIDPSDSDTAYSPSFQGQVTISADKSISTAYLQWSSLKASDTAMYYCARHPGLNWAPDFDYWGQGTLVTVSS VL: DIQMTQSPSSLSASVGDRVTITCRASQSINGVLNWYQQKPGKAPKLLIYFASSLQSGVPSRFSGSGSGTDFTLTISSLQPEDFATYYCQQSHDFPLTFGQGTKVEIK	0.021	0.041	0.053	0.136	0.147	0.04	0.051
IFWM3360 (antibody, V domains shown, VH IFWH624, VL IFWL1048; converted mAb; also called IFWB3095) VH: EVQLVQSGAEVKKPGESLKISCKGSGYSFTSYWIGWVRQMPGKGLEWMGIIDPSDSDTAYSPSFQGQVTISADKSISTAYLQWSSLKASDTAMYYCARHPGLNWAPDFDYWGQGTLVTVSS VL: DIQMTQSPSSLSASVGDRVTITCRASQSIDGALNWYQQKPGKAPKLLIYFASSLQSGVPSRFSGSGSGTDFTLTISSLQPEDFATYYCQQAYDFPLTFGQGTKVEIK	0.025	0.056	0.049	0.174	0.233	0.043	0.061
IFWM3361 (antibody, V domains shown, VH IFWH624, VL IFWL1051; converted mAb; also called IFWB3096) VH: EVQLVQSGAEVKKPGESLKISCKGSGYSFTSYWIGWVRQMPGKGLEWMGIIDPSDSDTAYSPSFQGQVTISADKSISTAYLQWSSLKASDTAMYYCARHPGLNWAPDFDYWGQGTLVTVSS VL: DIQMTQSPSSLSASVGDRVTITCRASQSIADFLNWYQQKPGKAPKLLIYFASSLQSGVPSRFSGSGSGTDFTLTISSLQPEDFATYYCQQSHSFPLTFGQGTKVEIK	0.03	0.101	0.135	0.388	0.622	0.066	0.098
IFWM3364 (antibody, V domains shown, VH IFWH624, VL IFWL1060; converted mAb; also called IFWB3099) VH: EVQLVQSGAEVKKPGESLKISCKGSGYSFTSYWIGWVRQMPGKGLEWMGIIDPSDSDTAYSPSFQGQVTISADKSISTAYLQWSSLKASDTAMYYCARHPGLNWAPDFDYWGQGTLVTVSS VL: DIQMTQSPSSLSASVGDRVTITCRASQSIRNSLNWYQQKPGKAPKLLIKWASSLQSGVPSRFSGSGSGTDFTLTISSLQPEDFATYYCQQLYDWPLTFGQGTKVEIK	0.013	0.093	0.109	0.254	0.269	0.08	0.118
IFWM3329 (antibody, V domains shown, VH IFWH591, VL IFWL1067; converted mAb; also called IFWB3064) VH: EVQLVQSGAEVKKPGESLKISCKGSGYSFTSYWIGWVRQMPGKGLEWMGIIDPSDSDTRYSPSFQGQVTISADKSISTAYLQWSSLKASDTAMYYCARHPGLNWAPDFDYWGQGTLVTVSS VL: DIQMTQSPSSLSASVGDRVTITCRASQSIRNNNLNWYQQKPGKAPKLLIHWASSLQSGVPSRFSGSGSGTDFTLTISSLQPEDFATYYCQQGYDTPFTFGQGTKVEIK	0.059	0.05	0.051	0.166	0.258	0.061	0.173
IFWM3327 (antibody, V domains shown, VH IFWH591, VL IFWL1063; converted mAb; also called IFWB3062) VH: EVQLVQSGAEVKKPGESLKISCKGSGYSFTSYWIGWVRQMPGKGLEWMGIIDPSDSDTRYSPSFQGQVTISADKSISTAYLQWSSLKASDTAMYYCARHPGLNWAPDFDYWGQGTLVTVSS VL: DIQMTQSPSSLSASVGDRVTITCRASQSIANNNLNWYQQKPGKAPKLLIHWASSLQSGVPSRFSGSGSGTDFTLTISSLQPEDFATYYCQQGYDTPFTFGQGTKVEIK	0.039	0.034	0.035	0.113	0.164	0.035	0.106
IFWM3331 (antibody, V domains shown, VH IFWH591, VL IFWL1073; converted mAb; also called IFWB3066) VH: EVQLVQSGAEVKKPGESLKISCKGSGYSFTSYWIGWVRQMPGKGLEWMGIIDPSDSDTRYSPSFQGQVTISADKSISTAYLQWSSLKASDTAMYYCARHPGLNWAPDFDYWGQGTLVTVSS VL: DIQMTQSPSSLSASVGDRVTITCRASQSIDNSYLNWYQQKPGKAPKLLIYGASSLQSGVPSRFSGSGSGTDFTLTISSLQPEDFATYYCQQGWDWPLTFGQGTKVEIK	0.015	0.012	0.013	0.072	0.085	0.015	0.026
IFWM3332 (antibody, V domains shown, VH IFWH591, VL IFWL1074; converted mAb; also called IFWB3067) VH: EVQLVQSGAEVKKPGESLKISCKGSGYSFTSYWIGWVRQMPGKGLEWMGIIDPSDSDTRYSPSFQGQVTISADKSISTAYLQWSSLKASDTAMYYCARHPGLNWAPDFDYWGQGTLVTVSS VL: DIQMTQSPSSLSASVGDRVTITCRASQSIANTNLNWYQQKPGKAPKLLIHWASSLQSGVPSRFSGSGSGTDFTLTISSLQPEDFATYYCQQWYDNPLTFGQGTKVEIK	0.034	0.031	0.054	0.135	0.139	0.05	0.076
IFWM3333 (antibody, V domains shown, VH IFWH591, VL IFWL1076; converted mAb; also called IFWB3068) VH: EVQLVQSGAEVKKPGESLKISCKGSGYSFTSYWIGWVRQMPGKGLEWMGIIDPSDSDTRYSPSFQGQVTISADKSISTAYLQWSSLKASDTAMYYCARHPGLNWAPDFDYWGQGTLVTVSS VL: DIQMTQSPSSLSASVGDRVTITCRASQSIDNNNLNWYQQKPGKAPKLLIYAASSLQSGVPSRFSGSGSGTDFTLTISSLQPEDFATYYCQQGYDWPLTFGQGTKVEIK	0.053	0.065	0.089	0.607	0.477	0.077	0.258
